Results published in the RNAGym collection of RNA variant scans (doi:10.1073/pnas.2313332121).

B1: TPR t1 (parent)
chain: GACCAAUCUGCCCUCAGAGCUCGAGAACAUCUUCGGAUGCAGAGGAGGCAGGCUUCGGUGGCGCGAUAGCGCCAACGUCCUCAACCUCCAAUGCAUCCCACCACAUGAUGAUGCCUGAAGAGCCUUGGUUUUUUG

Variants of: B1
Experiment: polymerase ribozyme fitness, log enrichment relative to wild type (log ratio); higher = more active; in vitro selection for triplet polymerase activity
In short: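 Both subunits of a heterodimeric triplet polymerase ribozyme were given their own mutant library, built by PCR and transcribed. Each library was annealed with a biotinylated primer, the partner subunit and triplets, incubated frozen at −7 °C, and its extended constructs gel-excised, captured on streptavidin beads and amplified by RT-PCR, all in one round done in triplicate. Fitness is the logarithm of genotype enrichment relative to wild-type enrichment, with replicates averaged by inverse-variance weighting. That logarithm is base 2, and Illumina-sequenced genotypes needed ≥10 input reads and ≥1 read per output.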

**Q.** Which “polymerase ribozyme fitness (log ratio)” value does the source give for GACCAAUCUGCCCUCAGAGCUCGAGAACAUCUUCGGAUGCAGAGGAGGCAGGCUUGGGUGGCGCGAUACCGCCAACGUCCUCAACCUCCAAUGCAUCCCACCACAUGAUGAUGCCUGAAGAGCCUUGGUUUUUUG [C56G G69C] here?
**A.** The value was -4.54.

**Q.** With GACCAAUCUGCCCUCAGAGCUCGAGAACAUCUUCGGAUGCAGAGGAGGCAGGCUUGGGUGGCGCGAUAGCGCCAACGUCCUCAACCUCCAAUGCAACCCACCACAUGAUGAUGCCUGAAGAGGCUUGGUCUUUUG [C56G U96A C123G U130C] as the variant, how does the “polymerase ribozyme fitness (log ratio)” value read?
**A.** Its value is 0.506.

**Q.** Which “polymerase ribozyme fitness (log ratio)” value does the source give for GACCAAUCUGCCCUCAGAGCUCGAGAACAUCUUCGGAUGCAGAGGAGGCAGGCUUGGGUGGCGCGAUAUCGCCAACGUCCUCAACCUCCAAUGCAUCCCACCACAUGAUGAUGCCUGAAGAGCUUUGGUUUUUUG [C56G G69U C124U] here?
**A.** The value was 0.715.

**Q.** For GACCAAUCUGCCCUCAGAGCUCGAGAACAUCUUCGGAUGCAGAGGAGGCAGGCUUGGGUGGCGCGAUAGCGCCAACGUCCUCAACCUCCAAUGCAUCCCACCACAUAAUGAUGCCUGAAGAGCCUUGGUUUUUUG [C56G G107A], which “polymerase ribozyme fitness (log ratio)” value is on record?
**A.** Its value is -5.95.

**Q.** Which “polymerase ribozyme fitness (log ratio)” value does the source give for GACCAAUCUGCCCUCAGAGCUCGAGAACAUCUUCGGAUGCAGAGGAGGCAGGCUUGGGUGGCACGAUAGCGCCAACGUCCUCAACCUCCAAUGCAUCCCAGCACAUGAUGAUGCCUGAAGAUCCUUGGUUUUUUG [C56G G63A C101G G122U] here?
**A.** Its value is -5.14.

**Q.** For GACCAAUCUGCCCUCAGAGCUCGAGAACAUCUUCGGAUGCAGAGGAGGCAGGCUUGGGUGGCGCGAUAGCGCCAACGUCCUCAACCUCCAAUGCAUCCCAACACAUGAUGAUGCCUGAAGAGCCUUGGUUUUUUG [C56G C101A], which “polymerase ribozyme fitness (log ratio)” value is on record?
**A.** The value was -1.08.

**Q.** Which “polymerase ribozyme fitness (log ratio)” value does the source give for GACCAAUCUGCCCUCAGAGCUCGAGAACAUCUUCGGAUGCAGAGGAGGCAGGCUUGGGUGGCGCGAUAGCGCCAACGUCCUCAACCUCCAAUGCAUCGCACCACAUGAUGAUGCCUGAAGAGCCUUGGUUUUUUG [C56G C98G] here?
**A.** Its value is -4.96.

**Q.** Which “polymerase ribozyme fitness (log ratio)” value does the source give for GACCAAUCUGCCCUCAGAGCUCGAGAACAUCUUCGGAUGCAGAGGAGGCAGGCUUGGGUGGCGCGAUAGCGCCAACGUCCUCAACCGCCAAUGCAUCCCCCCACAUGAUGAUGCCUGAAGAGCCUUGGUUUUUUG [C56G U87G A100C] here?
**A.** Its value is -1.94.

**Q.** Which “polymerase ribozyme fitness (log ratio)” value does the source give for GACCAAUCUGCCCUCAGAGCUCGAGAACAUCUUCGGAUGCAGAGGAGGCAGGCUUGGGUGGCGCGAUAGCGCCAACCUCCUCAACCUCCAAUGCAUCCCACCACAUGAUGAUGCCUGAAGAGCCUUGGUUUUUUG [C56G G77C] here?
**A.** Its value is -0.126.

**Q.** With GACCAAUCUGCCCUCAGAGCUCGAGAACAUCUUCGGAUGCAGAGGAGGCAGGCUUGGGUGGCGCGAUAGCGCCAACAUCCUCAACCUCCAAUGCAUCCCACCACAUGAUGAUGCCUGAAGAGCCUUGGUUUUUUG [C56G G77A] as the variant, how does the “polymerase ribozyme fitness (log ratio)” value read?
**A.** Its value is -0.468.

**Q.** With GACCAAUCUGCCCUCAGAGCUCGAGAACAUCUUCGGAUGCAGAGGAGGCAGGCUUGGGUGGCGCGAUAGCGCCAACGUCCUCAACCUCCAAUGCAUCCCACCACAUGACGAUGCCUGAAGAGCCUUGGUUUUUUG [C56G U109C] as the variant, how does the “polymerase ribozyme fitness (log ratio)” value read?
**A.** Its value is -3.23.

**Q.** With GACCAAUCUGCCCUCAGAGCUCGAGAACAUCUUCGGAUGCAGAGGAGGCAGGCUUGGGUGGCGCGAUAGCGCCAACGUCCUCAACCUCCAAUGCAUCCCACCACAUGAUGAUGUCUGAAGAGCCUUGGUUUUUUG [C56G C114U] as the variant, how does the “polymerase ribozyme fitness (log ratio)” value read?
**A.** Its value is -2.55.

**Q.** For GACCAAUCUGCCCUCAGAGCUCGAGAACAUCUUCGGAUGCAGAGGAGGCAGGCUUGGGUGGCGCGAUAGCGCCAACGUCCUCAACCUCCAAGGCAACCCACCACAUGAUGAUGCCUGAAGAACCUUGGUUUUUUG [C56G U92G U96A G122A], which “polymerase ribozyme fitness (log ratio)” value is on record?
**A.** The value was -4.6.

**Q.** Which “polymerase ribozyme fitness (log ratio)” value does the source give for GACCAAUCUGCCCUCAGAGCUCGAGAACAUCUUCGGAUGCAGAGGAGGCAGGCUUGGGUGGCGCGAUAGCGCCAACGUCCUCAACCUCCAAUGCAUCCCACCACAUGAAGAUCCCUGAAGAGCCUUGGUUUUUUG [C56G U109A G113C] here?
**A.** Its value is -5.42.

**Q.** For GACCAAUCUGCCCUCAGAGCUCGAGAACAUCUUCGGAUGCAGAGGAGGCAGGCUUGGGUGGCGCGAUAGCGCCAACGUCCUCAACCUCCAAUGCAUCCCACCACAUGAUGAUGCCUGAAGAGCCUUAAUUUUUUG [C56G G127A G128A], which “polymerase ribozyme fitness (log ratio)” value is on record?
**A.** Its value is -3.93.

**Q.** Which “polymerase ribozyme fitness (log ratio)” value does the source give for GACCAAUCUGCCCUCAGAGCUCGAGAACAUCUUCGGAUGCAGAGGAGGCAGGCUUGGGUGGCGCGAUAGCACCAACGUCCUCAACCUCCAAUGCAUCCCACCACAUGAUGAUGCCUGAAGAGCCUUGGUUUUUUG [C56G G71A] here?
**A.** The value was -4.31.

**Q.** With GACCAAUCUGCCCUCAGAGCUCGAGAACAUCUUCGGAUGCAGAGGAGGCAGGCUUGGGUGGCGCGAUACCGCCAACGUCCUCCACCUCCAAUGCAUCCCACCAUAUGAUGAUGCCUGAAGAGCCUUGGUUUUUUA [C56G G69C A83C C104U G135A] as the variant, how does the “polymerase ribozyme fitness (log ratio)” value read?
**A.** Its value is -4.55.

**Q.** With GACCAAUCUGCCCUCAGAGCUCGAGAACAUCUUCGGAUGCAGAGGAGGCAGGCUUGGGUGGCGCGAUAGCGCCAACGUCCUCAACCUCCAAUGCAUCCCACCACAUGAUGAUGCCCGAAGAGCCUUGGUGUUUUG [C56G U116C U130G] as the variant, how does the “polymerase ribozyme fitness (log ratio)” value read?
**A.** Its value is -0.701.

**Q.** With GACCAAUCUGCCCUCAGAGCUCGAGAACAUCUUCGGAUGCAGAGGAGGCAGGCUUGGGUGGCGCGAUAGCGCCAACGUCCUCAACCUCCAAUGCAUCCCACCACAUGAUGAUGCCUUAAGAGCCUUGGUUUUUUG [C56G G117U] as the variant, how does the “polymerase ribozyme fitness (log ratio)” value read?
**A.** The value was -2.83.

**Q.** With GACCAAUCUGCCCUCAGAGCUCGAGAACAUCUUCGGAUGCAGAGGAGGCAGGCUUGGGUGGCGCGAUAGCGCCAACGUCCUCAACCUCCAAUGCAUCCCACCACAUGAUGAUGCCUGAAGAGCCUUUGUUUUUUG [C56G G127U] as the variant, how does the “polymerase ribozyme fitness (log ratio)” value read?
**A.** The value was -1.1.

**Q.** Which “polymerase ribozyme fitness (log ratio)” value does the source give for GACCAAUCUGCCCUCAGAGCUCGAGAACAUCUUCGGAUGCAGAGGAGGCAGGCUUGGGUGGCGCGAUAGCGCCAACGUCCUCAACCUCCAAUGCAUCCCACCACAUGAUUAUGCCUGAAGAGCCUUGGUUUUUUG [C56G G110U] here?
**A.** The value was -1.13.
